Reference: patent publication US20200002699 (published 2020)
Positions count from the first letter of the chain named.

Legend:
[1] = molecular target: T1, alpha-thrombin (Homo sapiens, UniProt P00734;P00734 P00734:328-363,P00734:364-622); assay: filter; ±1.9; Fbmax 74.5; same buffer, 22 C
[2] = molecular target: T1, alpha-thrombin; assay: filter; ±0.9; Fbmax 84.5; same buffer, 22 C
[3] = molecular target: T1, alpha-thrombin; assay: filter; ±0.4; Fbmax 63.5; same buffer, 22 C
[4] = molecular target: T1, alpha-thrombin; assay: filter; NB, little or no binding; same buffer, 22 C
[5] = molecular target: T1, alpha-thrombin; assay: filter; ±2.8; Fbmax 52.9; same buffer, 22 C
[6] = molecular target: T1, alpha-thrombin; assay: filter; truncated form; 2 mM MgSO4 buffer
[7] = molecular target: T1, alpha-thrombin; assay: BLI; ±0.002; kon 91.9e4 M-1 s-1, koff 4.12e-4 s-1; RNA immobilized on streptavidin sensor; 20 mM Tris pH 7.5, 150 mM NaCl, 2 mM MgSO4, 2 mg/mL BSA, 0.1% Tween-20
[8] = molecular target: T1, alpha-thrombin; assay: filter; ±0.2; Fbmax 92.3; 20 mM Tris pH 7.5, 150 mM NaCl, 2 mM MgSO4, 50 ug/mL BSA, 22 C
[9] = molecular target: T1, alpha-thrombin; assay: filter; ±0.3; Fbmax 65.3; same buffer, 22 C
[10] = molecular target: T1, alpha-thrombin; assay: filter; ±0.3; Fbmax 80.6; same buffer, 22 C
[11] = molecular target: T1, alpha-thrombin; assay: filter; ±4.6; Fbmax 95.6; same buffer, 22 C

B1: Clone 6 (ssRNA)
RNA: GGAGAGGGAAGGAGAACGAGCCGGGACACUAAGGAACAUAAAAGUUAAGUGACACAAAGCCCGG
B1 was tested, and the Kd [1] was 13.8 nM.

B2: Clone 4 (ssRNA)
RNA: GGAGAGGGAAGGAGAACGGCUGCGGAUAACAAGAUAGCAAAGACUAAGUGACACAAAGCCCGG
Binder B2 has a Kd [2] of 10 nM.

B3: Clone 8 (ssRNA)
RNA: GGAGAGCGAAGAGAACGAGCGGGAUUGCACAAGAUAGCGUAGACUAAGUGACACAAAGCCCGG
For B3, the Kd [3] was 1.6 nM.

B4: Clone 5 (ssRNA)
RNA: GGAGAGGUAGGAGAACGAGCCUACCGUAAGAGAACGAGCAGACUCAAGUGACACAAAGCCCGG
B4: no binding [4].

B5: Clone 10 (ssRNA)
RNA: GGAGACGGAAGGAUAACGAGCGCUUUGACACAAGAUACAAUAUAGUAAGUGACACCAAGCCCGG
B5 was tested, and the Kd [5] was 36.4 nM.

B6: Clone 7 (ssRNA)
RNA: GGAGAGGGAAUGAUAACGAGCCCGAAGCUCGGAGAAGCACAGAAGCAAGUGACACAAAGCCCGG
B6: no binding [4].

In the case of GUGUUCACAAGAUAGAGUAGACUAAGUGACAC (ssRNA) [Truncated clone 9], the Kd [6] is reported as 2 nM and the Kd [7] is reported as 0.448 nM.

B7: Clone 9 (ssRNA)
RNA: GGAGAGGGAAAGAGAACGAGCGGGUGUUCACAAGAUAGAGUAGACUAAGUGACACAAAGCCCGG
B7 showed a Kd [8] of 1.4 nM.

B8: Clone 3 (ssRNA)
RNA: GGAGAGGGAAGGAGAACGAACCGGGACUCACAAGAUAGACAAUACUAAGUGACACAAAGCCCGG
In the case of B8, the Kd [9] is reported as 2.4 nM.

B9: Clone 2 (ssRNA)
RNA: B8 RNA with G8U, G12U, A20G, G23C, A26C, C27G, U43A
B9 was tested, and the Kd [10] was 3.5 nM.

B10: Clone 1 (ssRNA)
RNA: GGAGAGAGAAGGAGAACGAGCUGUUACUCACAAAAUAGCGAAGACUAAGUGACACAAAGCCCGG
B10 showed a Kd [11] of 44.7 nM.
